T1: SGK PY-motif peptide (human)
T1 construct: N-terminal cysteine of the printed peptide; stretch of human SGK (SGK1) with the PY motif PPFY (Y298); also called SGK peptide; source: synthetic peptide (Auspep)
T1 peptide: H-CLYGLPPFYSRNT-NH2


Molecular target: T1, SGK PY-motif peptide
Test: SPR; BIAcore 2000; peptide immobilised on Sensor Chip CM5 by amine chemistry; isolated WW-domains injected at 20 µl/min in HBS-EP; KD estimated from steady state equilibrium responses
Conditions: both partners purified

Binder	Kd [µM]
RNase (enzyme) KETAAAKFERQHMDSSTSAASSSNYCNQMMKSRNLTKDRCKPVNTFVHESLADVQAVCSQKNVACKNGQTNCYQSYSTMSITDCRETGSSKYPNCAYKTTQANKHIIVACEGNPYVPVHFDASV	> 600
Nedd4-2 WW2 (isolated WW-domain, GST removed) (domain or fragment) not shown	105
GFLPKGWEVRHAPNGRPFFIDHNTKTTTWEDPRL (domain or fragment, UniProt P46934 840-873, looked up, Nedd4 WW-domain 3 (a Nedd4 with four WW-domains); also called WW-domain 3 of Nedd4; source: E. coli BL21, GST removed with thrombin or TEV protease, purified (glutathione-Sepharose, Superdex-75)) [Nedd4 WW3 (isolated WW-domain, GST removed)]	130
Nedd4-2 WW1 (isolated WW-domain, GST removed) (domain or fragment) not shown	> 600

Other lines, results leading:

Kd [µM]	Binder
> 600	DLGPLPPGWEERIHLDGRTFYIDHNSKITQWEDPRLQNPAIT (domain or fragment) [Nedd4-2 WW4 (isolated WW-domain, GST removed)]
53.3	Nedd4-2 WW2-3 (isolated protein, GST removed) (domain or fragment) TTPGLPSGWEERKDAKGRTYYVNHNNRTTTWTRPIMQLAEDGASGSATNSNNHLIEPQIRRPRSLSSPTVTLSAPLEGAKDSPVRRAVKDTLSNPQSPQPSPYNSPKPQHKVTQSFLPPGWEMRIAPNGRPFFIDHNTKTTTWEDPRLKFPVHM
